{"source": "the DeepSol protein solubility set"}
{"experiment": "soluble on expression in E. coli; label from the status in PepcDB or PDB records"}
{"sequence": "MTVELCGRWDARDVAGGRYRVINNVWGAETAQCIEVGLETGNFTITRADHDNGNNVAAYPAIYFGCHWGACTSNSGLPRRVQELSDVRTSWTLTPITTGRWNAAYDIWFSPVTNSGNGYSGGAELMIWLNWNGGVMPGGSRVATVELAGATWEVWYADWDWNYIAYRRTTPTTSVSELDLKAFIDDAVARGYIRPEWYLHAVETGFELWEGGAGLRSADFSVTVQKLAAALEIKRASQPELAPEDPEDVEHHHHHH", "soluble on expression in E. coli": "soluble"}
{"sequence": "MGTICDAASPTFMLQHWVRDRRRGSRISLEHAIKRQCHDTARLYGLDDRGVIAPGYLADINVIDFDRVRLLKPWLAFDLPAGGKRLLQKAEGYDYTIKGGKVTFRNGEWTGATPGNLIRGPQRADLMEAAELEHHHHHH", "soluble on expression in E. coli": "not soluble"}
{"sequence": "MGSDKIHHHHHHMALLEVTDLSQSFADRKLYDDANFTLERADHMGIVGQNGAGKSTLIKILTGQILPLSGQIKWQRNVRTGYLDQYADIPAGMTLYAFLKTAFQRLYDLDAQMQQLYADYAEKMDDQLLERAGRIQETLEANNFYDVETEMERVITGLGLDEIGRDHVISEMSGGQRSKIILAKLLLENPDVIILDEPTNYLDTAHISWLEDYLNGFEGAVMVISHDYDFLQQVTNCICDVAFGKIIKYRGDFKAAMRQKEARKEAQLKAFEKQQVVIEKAEKFIRKNKAGSKSTMAKSREKMLSHLDRVDPPSENEHAKFAFPYLDTGSQNALSVTKLSVGYGKPLLEPVTFTMTNGEKLAFKGFNGVGKSTLIKSILGVIPALSGKSDFSPSAKINYFNQDLEWDNPQLTPLQTIQNEYPTMLPKTIRTKLAKCGINAANAMKPMHLLSGGEQTKVKLALLELVPSNFLIMDEPTNHLDDETKEGLKRALQAFQGNLILVSHESSFVNGWVDKELNVEKLSLKERQG", "soluble on expression in E. coli": "not soluble"}
{"sequence": "MSVDETITFSLAVKNTGNREGQEIVQLYIRDIKSSLPRPVKELKRFKKVNLMPGEEKIVSLSIDKEALSFFDAERHEWICEPGKFEAIIAASAMDIKDVLKFELKLEHHHHHH", "soluble on expression in E. coli": "not soluble"}
{"sequence": "AHHHHHHGSDKVYLTWWQVDRAIFALAEKLREYKPDVIVGIARGGLIPAVRLSHILGDIPLKVIDVKFYKGIEERGEKPVITIPIHGDLKDKKVVIVDDVSDTGKTLEVVIEEVKKLGAKEVKVACLAMKPWTSVVPDYYVFRTEKWIVFPWEEFPVIERE", "soluble on expression in E. coli": "not soluble"}
{"sequence": "MSLNILIIGPSWVGDMMMSHSLYQQLKIQYPNCNIDVMAPNWCKPLLARMPEVRKAIEMPLGHGAFELGTRYRLGKSLREQYDMAIVLPNSLKSAFIPFFAKIVHRRGWKGESRYILLNDLRANKKDYPMMVQRYVALAFEKDVIPKADDIPVLKPYLTVEPAQQAETLKKFEKQTALLGERPIIGFCPGAEFGPAKRWPHYHYAKLAEMLITQGYAVALFGSAKDEPVGEEIRQALPEELREFCVNLAGKTNLNEAVDLIANCTAVVTNDSGLMHIAAAVNRPLIALYGPTSPQYTPPLSDKATIIRLIEGELIKVRKGDKEGGYHQSLIDITPEMALEKLNELLAKEGGSHHHHHH", "soluble on expression in E. coli": "soluble"}
{"sequence": "MQRKLATWAATDPSLRIQRLLRLITQPEWLAEAARITLSSKGAHTPGVDGVNKTMLQARLAVELQILRDELLSGHYQPLPARRVYIPKSNGKLRPLGIPALRDRIVQRAMLMAMEPIWESDFHTLSYGFRPERSVHHAIRTVKLQLTDCGETRGRWVIEGDLSSYFDTVHHRLLMKAVRRRISDARFMTLLWKTIKAGHIDVGLFRAASEGVPQGGVISPLLSNIMLNEFDQYLHERYLSGKARKDRWYWNNSIQRGRSTAVRENWQWKPAVAYCRYADDFVLIVKGTKAQVEAIREECRGVLEGSLKLRLNMDKTKIPHVNDGFIFLGHRLIRKRSRYGEMRVVSTIPQEKARNFAASLTALLWKVRISGEILLGLEHHHHHH", "soluble on expression in E. coli": "not soluble"}
{"sequence": "MKRVLSGIQPSGEIHIGNYLGAIKQWVAIGEKWGRDAFFCIVDYHALTNPLAYDPSTLAQRTFEAALVNIAAGLDPEKVTLFVQSHVPEHTELSWVFTTLTPLGDLTRMTQFKDKASKQETVWSGLLMYPVLQAADILIYKADTVPVGEDQVQHIELTREIARRFNHLFGETFPEPQALLNPEAPRVPGIDGKAKMSKSLGNTIGLLEPEESIWQKIQHLPDDPQRIRLSDPGDPERTILFTYLSYFAPKDLVEALKEEYRKAGVGTYVVKRILFDHLMEALRPIRERAEALKKDPDYVMDALLEGAKRARAVAQATMEEVREKVGLLLPRKRPVLR", "soluble on expression in E. coli": "soluble"}
{"sequence": "MGSDKIHHHHHHMREAMYWKPLGDGRVRCELCPLRCIIDEGKRGSCKIRINKGGKLYTLNYGKVSSIALDPIEKKPLFHFWPGSCALSIGTVGCNMHCKHCQNWEISQADESFPYLQDATPEAIVSLAKHYECESIAYTYNEPTIWYEFVLDTAKLARKEGLNNILVTNGYINEEPFRELAPYIDAMNIDIKAFDDKFYMKIASVPSGEPSRRIAEIAKKEFKIHVELTYLIIPTLNDKEEEIREFARWVVENLGDDTPVHFSRFFPHYKLLNLPPTPIETLEKAYKIAKEEGLKFVYLGNVPGHPGENTYCPSCGKLLIERWGFDIIRYDIVDGKCKYCGEKIPIVGKYQKKKYRGMWW", "soluble on expression in E. coli": "not soluble"}
{"sequence": "MMNKNKKLMVMAGGTGGHVFPGLAVAKQLQQQGWQIRWLGTADRMEAELVPKHGIEIDFIQVKGLRGQGLMRLLKAPFQIVNAILQARRHLLTYQPDAVLGMGGYVSGPGGIAAWLLGIPVVLHEQNAVAGLTNQWLAKIARRVFQAFPGAFADASVVGNPVRQDVVQLAAPEQRFATRNGAIRILVMGGSQGARILNQTLPAVMAALGEGYEIRHQAGKNSQQDVAEAYAAAGVESAQVTEFIDDVADAYAWADLLICRSGALTVSEVSAAGVGAIFIPFMHKDRQQALNADHLVACGAAKMIEQPELSVEKLTQMVRELDRAQLLSMAQKARQAAKLDADKVVAQAIIAITE", "soluble on expression in E. coli": "not soluble"}
{"sequence": "MNTHYVGPVLYTPKENVSEKLLKLFDADQPIIFCYTARFYDNVGESGKAIFDNMIKIADKIDASIIISTGNKKDELLALDIASKELKSGKVSIVDYVPLDMAYEKSDLVIHHGGHGSCLAQFYYGVPSVIIPTHTEREYNARMCEKLHVGKMLPRRELNSANLKNCINDVLNDITYKKSVRDWKEKVSGLEHHHHHH", "soluble on expression in E. coli": "not soluble"}
{"sequence": "MGSDKIHHHHHHMLAERLVSDYDVEVLTTCVRDVATGENIYPEGEEEWNGVVIRRFRTNPVQREKERYFAKKAKPARKLRQFLFKLGILKYLSYLIPVWSYKHDDEVQAMKSDKFYSSALNDYIRDHIDEYKAFIAMSSDYVTFYYTALYAGRKTIAIPTMHNMGISFRSVLTSAFSKIAYVGFNTGEEQRLAENILGKALGAHGILSVGIEESLSADWAMTKEKFQLPEKYLLYIGRITPKKIHRLLTYFVNYKKKYSDSTLRLVLVGGLAMERFEHPDVIYTGFVSDEEKMSILQHADIVVNPSRYESLSLILLEAMSQKRPMLVNGHCKVLKEHCLKSDFASFYYMNNRGFNQALRRIEQSEDLREEMGEKGVFYVKSNYNWTLIMGRLKQAIKSI", "soluble on expression in E. coli": "not soluble"}
{"sequence": "MGHHHHHHSHMSKAIKQNLADSKKMSAELFCLTYGAMVTEMLKDYEDPKDVTIQLDKMGFNMGTRLADDFLAKNANVPRCVDTRQIADVLCRNAIPCYLGISATASSWTSGDREFTITLEANPLTELVQVPAHLVSAGLSYSQLIAGAIRGALEAVHFKVYASATDTGANTEIRIRFDQVLKDSLPAGEDD", "soluble on expression in E. coli": "soluble"}
{"sequence": "MSASVSDPYEQMPAAPTDDDLEDKPEADKKALLNQVFKSLKRAQDLFYHDYAQPPPMPEENDSLIRSMKRKHEYGNVIKKVEEMKVRRENEMLALPTSQPMHGTGSVIASAGTPLAITDGSGKLVNQQQGSAKSGTLLPLVPLGNSSKGEDNTTRSLLPSKAPMMMKPKWHAPWKLYRVASGHTGWVRAVDVEPGNQWFASGGADRIIKIWDLASGQLKLSLTGHISSVRAVKVSPRHPFLFSGGEDKQVKCWDLEYNKVIRHYHGHLSAVQALSVHPSLDVLVTCARDSTARVWDMRTKAQVHCFAGHTNTVADVVCQSVDPQVITASHDATVRLWDLAAGRSMCTLTHHKKSVRALTIHPRLNMFASASPDNIKQWKLPKGEFMQNLSGHNAIINTLSSNDDGVVVSGADNGSLCFWDWRSGFCFQKIQTKPQPGSIESEAGIYASCFDKTGLRLITAEADKTIKMYKEDDEATEESHPIVWRPEIVKKKAY", "soluble on expression in E. coli": "not soluble"}
{"sequence": "GATCLSQYCADKARDGVCDEACNSHACQWDGGDCSLTMENPWANCSSPLPCWDYINNQCDELCNTVECLFDNFECQGNSKTCKYDKYCADHFKDNHCNQGCNSEECGWDGLDCAADQPENLAEGTLVIVVLMPPEQLLQDARSFLRALGTLLHTNLRIKRDSQGELMVYPYYGEVAGSKVFLEIDNRQCVQDSDHCFKNTDAAAALLASHAIQGTLSYPLVSVVSESLTPERTQ", "soluble on expression in E. coli": "soluble"}
{"sequence": "AESSADKFKRQHMDTEGPSKSSPTYCNQMMKRQGMTKGSCKPVNTFVHEPLEDVQAICSQGQVTCKNGRNNCHKSSSTLRITDCRLKGSSKYPNCDYTTTDSQKHIIIACDGNPYVPVHFDASV", "soluble on expression in E. coli": "soluble"}
{"sequence": "GAMAGSIRSKLSAIDVRQLGTVDYRTAWQLQRELADARVAGGADTLLLLEHPAVYTAGRRTETHERPIDGTPVVDTDRGGKITWHGPGQLVGYPIIGLAEPLDVVNYVRRLEESLIQVCADLGLHAGRVDGRSGVWLPGRPARKVAAIGVRVSRATTLHGFALNCDCDLAAFTAIVPCGISDAAVTSLSAELGRTVTVDEVRATVAAAVCAALDGVLPVGDRVPSHAVPSPL", "soluble on expression in E. coli": "soluble"}
{"sequence": "MAHHHHHHMIRWAAVLRCGAHGVREDRQALARHHLNLLDKRHWELTTPSRALPVVEVLIRSGVLMDRLEKSSTKPLASLTPSMTKKERSLVQKLSHMLHQASPPTACRVSRNAVEEDEAVRAAYSAACATGACTIDVVVDLAFVRHLRFPLSALMLLELVESRCVKVCWTRGKPCLSKELLDSICDLFAEHEQSLDFRATWWLLSLLGGGTQVRDWPITLSAGKRLFRLCVRRIHYLLPDLPLEDLLLAYVQLARIEGYEKPFIVLGEMERLLLATSSDEYTGVSTNVLLRFMTMPFAVRHADLNLRLCAGWSAASRITEFTQEECLAAFAIVAALHEGCVAESAAAVAALRDWEMLHDALFAQVFCVAHEMTAADCFRILDQSELINVSGWGITVPQMLLEKLKKRILSECTHYAMDECRVPETAELLLRVALGLQALMQRYTVLPSSAADEHAVAECILLLERCITVLPPHG", "soluble on expression in E. coli": "not soluble"}
{"sequence": "MGSDKIHHHHHHMSFFPGPDPLAGDKPACDAIEHLIIPRTSDIGGLQVRRALPTAKRRLVGPFIFFDRMGPALLRAGQAIDVRPHPHIGLSTVTYLFDGEIKHRDSLGTEMVIRPGDVNLMTAGRGIVHSERSPENQRGHERSLSGLQTWLALPDAMEEIDPVFAHTEERMLPHLADGGVRARVVIGQFEGAASPVSTFTDTIYVDLMIEPGKSAPFAANWEERALYILSGEAIIAGDHFDNNQLLVFRPGDEITITAGPAGCHVMLFGGAALGSPRHIWWNFVSSSKERIDKAKEEWRTGRFDIVPGDEEEFIPLPAS", "soluble on expression in E. coli": "not soluble"}
{"sequence": "MMCTAKKCGIRFQPPAIILIYESEIKGKIRQRIMPVRNFSKFSDCTRAAEQLKNNPRHKSYLEQVSLRQLEKLFSFLRGYLSGQSLAETMEQIQRETTIDPEEDLNKLDDKELAKRKSIMDELFEKNQKKKDDPNFVYDIEVEFPQDDQLQSCGWDTESADEF", "soluble on expression in E. coli": "soluble"}
{"sequence": "MAAPAASGLSRQVRSFSTSVVRPFAKLVRPPVQVYGIEGRYATALYSAASKEKKLDQVEKELLRVGQLLKDPKVSLAVLNPYIKRTVKVKSLNDITKREKFSPLTANLMNLLAENGRLGNTQGIISAFSTIMSVHRGEVPCTVTTASPLDDAVLSELKTVLKSFLSPNQILKLEIKTDPSIMGGMIVRIGEKYVDMSAKSKIQKLSKAMREML", "soluble on expression in E. coli": "soluble"}
